Results published in PMC12077210, “Di-HAMP domains of a cytoplasmic chemoreceptor modulate nucleoid array formation and downstream signaling” (mBio, 2024).

What was measured:
[1] = molecular target: FrzCD^ΔH2 (Myxococcus xanthus) (UniProt P43500); experiment: SEC-MALS; no DNA; Superdex 200 Increase 10/300, 50 mM NaCl, 50 mM Tris pH 8.0, about 25°C; 100 μL injected at 45 and 150 μM (FrzCD), 70 and 200 μM (ΔMA), 25 μM (ΔH1ΔH2), 25 and 65 μM (ΔH2), 25 μM (ΔH1)
[2] = molecular target: FrzCD^ΔMA (Myxococcus xanthus) (UniProt P43500); experiment: SEC-MALS; with 35 bp DNA in the injected sample: 70 μM FrzCD with 30 μM DNA; 200 μM FrzCD with 100 μM DNA; 200 μM ΔMA with 100 μM DNA; 100 μM ΔH2 with 50 μM DNA
[3] = molecular target: FrzCD^ΔMA (Myxococcus xanthus) (UniProt P43500); experiment: SEC-MALS; no DNA; Superdex 200 Increase 10/300, 50 mM NaCl, 50 mM Tris pH 8.0, about 25°C; 100 μL injected at 45 and 150 μM (FrzCD), 70 and 200 μM (ΔMA), 25 μM (ΔH1ΔH2), 25 and 65 μM (ΔH2), 25 μM (ΔH1)
[4] = molecular target: FrzCD^ΔH1ΔH2 (Myxococcus xanthus) (UniProt P43500); experiment: as above
[5] = molecular target: the molecule itself; experiment: as above
His6-FrzCDΔH2 (BLI) = molecular target: T1, His6-FrzCDΔH2 (BLI) (Myxococcus xanthus, UniProt P43500 1-417, del84-136); experiment: BLI; EMSA: 50 mM Tris pH 7.4, 50 mM NaCl, 1 mM DTT, 10% glycerol, 25 C, 30 min, 0.5-2 uM DNA; BLI: 10 mM Tris pH 7.4, 150 mM NaCl, 25 C, 5 nM DNA; conditions: protein: recombinant; tags: N-terminal His6 (pETphos); label: 5' biotin on forward strand; blunt
T1 sequence: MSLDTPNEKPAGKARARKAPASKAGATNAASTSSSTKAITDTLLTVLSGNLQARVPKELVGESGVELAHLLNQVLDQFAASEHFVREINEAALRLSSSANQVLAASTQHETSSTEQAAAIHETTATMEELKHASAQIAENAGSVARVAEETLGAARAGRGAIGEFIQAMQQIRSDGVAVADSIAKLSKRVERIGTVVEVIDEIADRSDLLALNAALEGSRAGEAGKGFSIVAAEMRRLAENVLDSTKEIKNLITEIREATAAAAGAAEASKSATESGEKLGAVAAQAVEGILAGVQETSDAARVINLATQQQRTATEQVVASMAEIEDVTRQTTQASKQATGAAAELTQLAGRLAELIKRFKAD

His6-FrzCDΔH1ΔH2 (BLI) = molecular target: T2, His6-FrzCDΔH1ΔH2 (BLI) (Myxococcus xanthus, UniProt P43500 1-417, del31-136); experiment: as above; conditions: protein: recombinant; tags: N-terminal His6 (pETphos); label: 5' biotin on forward strand; blunt
T2 sequence: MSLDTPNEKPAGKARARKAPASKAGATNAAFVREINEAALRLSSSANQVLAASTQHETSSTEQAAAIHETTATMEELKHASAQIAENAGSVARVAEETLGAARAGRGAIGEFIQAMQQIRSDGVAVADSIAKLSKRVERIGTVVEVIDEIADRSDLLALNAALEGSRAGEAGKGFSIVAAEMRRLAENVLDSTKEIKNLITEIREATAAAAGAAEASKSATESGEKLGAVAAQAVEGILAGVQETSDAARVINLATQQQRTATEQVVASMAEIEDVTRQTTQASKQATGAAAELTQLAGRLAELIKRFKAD

His6-FrzCD (BLI) = molecular target: T3, His6-FrzCD (BLI) (Myxococcus xanthus, UniProt P43500 1-417); experiment: as above; conditions: protein: recombinant; tags: N-terminal His6 (pETphos); label: 5' biotin on forward strand; blunt
T3 sequence: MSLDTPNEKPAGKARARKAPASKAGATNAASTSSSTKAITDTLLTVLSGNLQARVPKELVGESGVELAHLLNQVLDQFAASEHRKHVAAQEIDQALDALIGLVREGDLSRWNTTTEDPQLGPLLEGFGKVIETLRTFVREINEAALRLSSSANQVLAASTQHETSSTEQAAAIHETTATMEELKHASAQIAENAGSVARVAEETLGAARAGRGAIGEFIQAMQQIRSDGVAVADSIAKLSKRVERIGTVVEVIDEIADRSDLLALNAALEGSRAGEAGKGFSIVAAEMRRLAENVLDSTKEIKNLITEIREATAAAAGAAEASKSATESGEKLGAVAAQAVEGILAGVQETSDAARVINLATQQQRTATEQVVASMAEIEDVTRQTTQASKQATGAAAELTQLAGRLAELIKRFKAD

FrzCDΔH1 (EMSA) = molecular target: T4, FrzCDΔH1 (EMSA) (Myxococcus xanthus, UniProt P43500 1-417, del32-83); experiment: EMSA; EMSA: 50 mM Tris pH 7.4, 50 mM NaCl, 1 mM DTT, 10% glycerol, 25 C, 30 min, 0.5-2 uM DNA; BLI: 10 mM Tris pH 7.4, 150 mM NaCl, 25 C, 5 nM DNA; conditions: protein: recombinant; tags: C-terminal His6 (pHis17); blunt
T4 sequence: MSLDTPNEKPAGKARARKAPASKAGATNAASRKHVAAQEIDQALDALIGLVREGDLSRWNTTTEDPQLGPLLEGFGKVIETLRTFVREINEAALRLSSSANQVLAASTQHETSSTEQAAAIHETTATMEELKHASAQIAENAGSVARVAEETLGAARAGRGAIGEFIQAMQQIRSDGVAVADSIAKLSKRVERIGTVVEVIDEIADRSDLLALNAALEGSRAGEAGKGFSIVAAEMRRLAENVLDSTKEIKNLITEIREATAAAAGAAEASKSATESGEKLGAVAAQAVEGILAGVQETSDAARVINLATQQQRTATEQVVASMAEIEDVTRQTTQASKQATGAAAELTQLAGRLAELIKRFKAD

FrzCDΔH2 (EMSA/SEC-MALS) = molecular target: T5, FrzCDΔH2 (EMSA/SEC-MALS) (Myxococcus xanthus, UniProt P43500 1-417, del84-136); experiment: as above; conditions: protein: recombinant; tags: C-terminal His6 (pHis17); blunt
T5 sequence: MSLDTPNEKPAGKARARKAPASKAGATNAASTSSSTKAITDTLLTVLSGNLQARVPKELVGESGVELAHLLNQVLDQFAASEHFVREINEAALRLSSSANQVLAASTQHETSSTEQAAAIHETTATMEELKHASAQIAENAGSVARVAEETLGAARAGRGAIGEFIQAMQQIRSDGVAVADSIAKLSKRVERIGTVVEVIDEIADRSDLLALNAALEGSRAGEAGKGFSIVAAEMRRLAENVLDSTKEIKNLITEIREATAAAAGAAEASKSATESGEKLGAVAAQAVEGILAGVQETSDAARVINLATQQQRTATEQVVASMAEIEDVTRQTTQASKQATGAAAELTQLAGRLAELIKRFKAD

FrzCDΔH1ΔH2 (EMSA) = molecular target: T6, FrzCDΔH1ΔH2 (EMSA) (Myxococcus xanthus, UniProt P43500 1-417, del32-136); experiment: as above; conditions: protein: recombinant; tags: C-terminal His6 (pHis17); blunt
T6 sequence: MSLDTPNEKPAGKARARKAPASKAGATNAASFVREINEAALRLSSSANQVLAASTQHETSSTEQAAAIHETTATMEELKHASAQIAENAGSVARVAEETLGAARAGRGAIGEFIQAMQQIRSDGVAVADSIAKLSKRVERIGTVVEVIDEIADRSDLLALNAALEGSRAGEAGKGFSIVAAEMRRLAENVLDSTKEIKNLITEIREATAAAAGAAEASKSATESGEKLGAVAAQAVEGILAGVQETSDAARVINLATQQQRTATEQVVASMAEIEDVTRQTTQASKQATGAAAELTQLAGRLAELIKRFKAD

FrzCD (EMSA/SEC-MALS) [6] = molecular target: T7, FrzCD (EMSA/SEC-MALS) (Myxococcus xanthus, UniProt P43500 1-417); experiment: SEC-MALS; high-order oligomers at 200 uM protein, 100 uM DNA; EMSA: 50 mM Tris pH 7.4, 50 mM NaCl, 1 mM DTT, 10% glycerol, 25 C, 30 min, 0.5-2 uM DNA; BLI: 10 mM Tris pH 7.4, 150 mM NaCl, 25 C, 5 nM DNA; conditions: protein: recombinant; tags: C-terminal His6 (pHis17); chain copies: 2; blunt
T7 sequence: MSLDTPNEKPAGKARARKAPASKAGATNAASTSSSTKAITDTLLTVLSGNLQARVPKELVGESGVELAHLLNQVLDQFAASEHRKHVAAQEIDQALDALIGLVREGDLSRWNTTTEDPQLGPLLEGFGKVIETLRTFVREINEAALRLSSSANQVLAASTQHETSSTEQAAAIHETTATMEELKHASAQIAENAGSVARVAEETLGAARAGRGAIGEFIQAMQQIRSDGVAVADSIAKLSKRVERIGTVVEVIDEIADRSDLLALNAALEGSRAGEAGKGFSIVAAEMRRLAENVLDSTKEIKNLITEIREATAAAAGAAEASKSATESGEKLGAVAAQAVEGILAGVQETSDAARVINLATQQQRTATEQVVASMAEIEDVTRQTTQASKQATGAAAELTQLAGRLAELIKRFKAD

FrzCD (EMSA/SEC-MALS) [7] = molecular target: T7, FrzCD (EMSA/SEC-MALS); experiment: EMSA; EMSA: 50 mM Tris pH 7.4, 50 mM NaCl, 1 mM DTT, 10% glycerol, 25 C, 30 min, 0.5-2 uM DNA; BLI: 10 mM Tris pH 7.4, 150 mM NaCl, 25 C, 5 nM DNA; conditions: protein: recombinant, tags: C-terminal His6 (pHis17), chain copies: 2

## FrzCD^ΔH2 (from UniProt P43500 1-417) (receptor)
[1]
  stoichiometry N: 4

## FrzCD^ΔMA (from UniProt P43500 1-136) (domain or fragment)
[2]
  stoichiometry N: 2
[3]
  stoichiometry N: 2

## FrzCD^ΔH1ΔH2 (from UniProt P43500 1-417) (receptor)
[4]
  stoichiometry N: 4

B1: FrzCD full-length (receptor, Myxococcus xanthus, UniProt P43500 1-417, looked up)
chain: MSLDTPNEKPAGKARARKAPASKAGATNAASTSSSTKAITDTLLTVLSGNLQARVPKELVGESGVELAHLLNQVLDQFAASEHRKHVAAQEIDQALDALIGLVREGDLSRWNTTTEDPQLGPLLEGFGKVIETLRTFVREINEAALRLSSSANQVLAASTQHETSSTEQAAAIHETTATMEELKHASAQIAENAGSVARVAEETLGAARAGRGAIGEFIQAMQQIRSDGVAVADSIAKLSKRVERIGTVVEVIDEIADRSDLLALNAALEGSRAGEAGKGFSIVAAEMRRLAENVLDSTKEIKNLITEIREATAAAAGAAEASKSATESGEKLGAVAAQAVEGILAGVQETSDAARVINLATQQQRTATEQVVASMAEIEDVTRQTTQASKQATGAAAELTQLAGRLAELIKRFKAD
notes: FrzCD, cytoplasmic methyl-accepting chemotaxis protein of Myxococcus xanthus; DB 1-30, H1 31-83, H2 84-136, MA 137-417; The C-terminal hexa-histidine tag is that of the pHis17 constructs; also called His6-FrzCD; wild type; source: E. coli (BL21-AI, BL21-DE3 or C43), purified (HisTrap, ion exchange)
[5]
  stoichiometry N: 2

B2: FrzCD^ΔH1 (receptor, Myxococcus xanthus, UniProt P43500 1-417, looked up)
chain: MSLDTPNEKPAGKARARKAPASKAGATNAARKHVAAQEIDQALDALIGLVREGDLSRWNTTTEDPQLGPLLEGFGKVIETLRTFVREINEAALRLSSSANQVLAASTQHETSSTEQAAAIHETTATMEELKHASAQIAENAGSVARVAEETLGAARAGRGAIGEFIQAMQQIRSDGVAVADSIAKLSKRVERIGTVVEVIDEIADRSDLLALNAALEGSRAGEAGKGFSIVAAEMRRLAENVLDSTKEIKNLITEIREATAAAAGAAEASKSATESGEKLGAVAAQAVEGILAGVQETSDAARVINLATQQQRTATEQVVASMAEIEDVTRQTTQASKQATGAAAELTQLAGRLAELIKRFKAD
notes: FrzCD of Myxococcus xanthus with the HAMP1 domain (H1, residues 31 to 83) deleted; The limits of the deletion are the printed limits of the domain; The tag is that of the pHis17 constructs; source: E. coli (BL21-AI, BL21-DE3 or C43), purified (HisTrap, ion exchange)
[5]
  stoichiometry N: 4

B3: 178 bp DNA (dsDNA)
DNA 1: GGATCGCATCTGCCTACATCCCCAGCTCCCGGTCGGTCCGCTCGGAACCTAGCCCGGGTCAAAGACCCGGGGTCTATGTTGACCCATTTGGTGGGGATGGGTCTAATTGGACCTGGCGTTTTTTCGCGCCATGGAAATGTCAAGGCCCGTGATTCCAGACTGTTGGGCAGGGAGTT
DNA 2: AACTCCCTGCCCAACAGTCTGGAATCACGGGCCTTGACATTTCCATGGCGCGAAAAAACGCCAGGTCCAATTAGACCCATCCCCACCAAATGGGTCAACATAGACCCCGGGTCTTTGACCCGGGCTAGGTTCCGAGCGGACCGACCGGGAGCTGGGGATGTAGGCAGATGCGATCC
His6-FrzCDΔH2 (BLI)
  Kd: 1730 nM
His6-FrzCDΔH1ΔH2 (BLI)
  Kd: 210 nM
His6-FrzCD (BLI)
  Kd: 650 nM

B4: 35 bp DNA (dsDNA)
DNA 1: GTCACCTGCTCTAGCTAATAGACTGAGCCGAGGTG
DNA 2: CACCTCGGCTCAGTCTATTAGCTAGAGCAGGTGAC
FrzCDΔH1 (EMSA)
  binding result: binds
FrzCDΔH2 (EMSA/SEC-MALS)
  binding result: binds
FrzCDΔH1ΔH2 (EMSA)
  binding result: binds
FrzCD (EMSA/SEC-MALS) [6]
  binding result: binds

B5: 8 bp DNA (dsDNA)
DNA 1: ACTGCAGT
DNA 2: ACTGCAGT
FrzCD (EMSA/SEC-MALS) [7]; blunt
  binding result: binds

## AAAAAAAA (ssDNA) [8-base poly-A ssDNA]
FrzCD (EMSA/SEC-MALS) [7]
  binding result: binds
